Experimental data from paper doi:10.1101/2022.11.03.514279 (bioRxiv, 2022).

B1: pVII (f1 phage minor capsid protein) (natural protein, f1 filamentous phage, UniProt P69534 1-33, looked up)
chain: MEQVADFDTIYQAMIQISVVLCFALGIIAGGQR

Legend:
cryo-EM structure = target: the molecule itself; assay: cryo-EM structure
[1] = target: B1; assay: cryo-EM structure

Binder | stoichiometry N (cryo-EM structure) | binding result [1]
pVI (f1 phage minor capsid protein) (natural protein, f1 filamentous phage, UniProt P69531 1-112, looked up) MPVLLGIPLLLRFLGFLLVTLFGYLLTFLKKGFGKIAIAISLFLALIIGLNSILVGYLSDISAQLPSDFVQGVQLILPSNALPCFYVILSVKAAIFIFDVKQKIVSYLDWDK | 5 | –
B1 | 5 | –
MSVLVYSFASFVLGWCLRSGITYFTRLMETSS (natural protein, f1 filamentous phage, UniProt P69537 1-32, looked up) [pIX (f1 phage minor capsid protein)] | – | binds
